{"source": "the DeepSol protein solubility set", "data": [{"experiment": "soluble on expression in E. coli; label from the status in PepcDB or PDB records", "values": [{"sequence": "MQSVDVAIVGGGMVGLAVACGLQGSGLRVAVLEQRVQEPLAANAPPQLRVSAINAASEKLLTRLGVWQDILSRRASCYHGMEVWDKDSFGHISFDDQSMGYSHLGHIVENSVIHYALWNKAHQSSDITLLAPAELQQVAWGENETFLTLKDGSMLTARLVIGADGANSWLRNKADIPLTFWDYQHHALVATIRTEEPHDAVARQVFHGEGILAFLPLSDPHLCSIVWSLSPEEAQRMQQASEDEFNRALNIAFDNRLGLCKVESARQVFPLTGRYARQFASHRLALVGDAAHTIHPLAGQGVNLGFMDAAELIAELKRLHRQGKDIGQYIYLRRYERSRKHSAALMLAGMQGFRDLFSGTNPAKKLLRDIGLKLADTLPGVKPQLIRQAMGLNDLPEWLRLEHHHHHH", "soluble on expression in E. coli": "not soluble"}, {"sequence": "MQSVTPTSQYLKALNEGSHQPDDVQKEAVSRLEIIYQELINSRPPAPRTSGLMARVGKLWGKREDTKHTPVRGLYMWGGVGRGKTWLMDLFYQSLPGERKQRLHFHRFMLRVHEELTALQGQTDPLEIIADRFKAETDVLCFDEFFVSDITDAMLLGGLMKALFTRGITLVATSNIPPDELYRNGLQRARFLPAIDAIKQHCDVMNVDAGVDYRLRTLTQAHLWLSPLNDETRAQMDKLWLALAGVKRENSPTLEINHRPLATMGVENQTLAVSFTTLCVDARSQHDYIALSRLFHTVMLFDVPVMTRLMESEARRFIALVDEFYERHVKLVVSAEVPLYEIYQGERLKFEFQRCLSRLQEMQSEEYLKLEHHHHHH", "soluble on expression in E. coli": "not soluble"}, {"sequence": "MQSWYLLYCKRGQLQRAQEHLERQAVNCLAPMITLEKIVRGKRTAVSEPLFPNYLFVEFDPEVIHTTTINATRGVSHFVRFGASPAIVPSAVIHQLSVYKPKDIVDPATPYPGDKVIITEGAFEGFQAIFTEPDGEARSMLLLNLINKEIKHSVKNTEFRKL", "soluble on expression in E. coli": "soluble"}, {"sequence": "MQVHVIRRENRALYAGLLEKYFRIRHQIYVVERGWKELDRPDGREIDQFDTEDAVYLLGVDNDDIVAGMRMVPTTSPTLLSDVFPQLALAGPVRRPDAYELSRIFVVPRKRGEHGGPRAEAVIQAAAMEYGLSIGLSAFTIVLETWWLPRLVDQGWKAKPLGLPQDINGFSTTAVIVDVDDDAWVGICNRRSVPGPTLEWRGLEAIRRHSLPEFQVIS", "soluble on expression in E. coli": "not soluble"}, {"sequence": "MQWSVWKMEESLDTLFSLLPDVRRVSCEQEMQRFTSDRRKLEWLSVRVLLYSMLQEDKEIGYSSEGKPHLTDNSSFISISHTKGYVAVILSSVAPVGIDIEQYGQRVKRVYDRFIRSDERVEPYQGDETWSMLLHWSAKETIFKSMENADADLRKLCLSHFIPQSEGVFQVREYATERQQLFTVGYRICPDFVLTWTVTIS", "soluble on expression in E. coli": "not soluble"}, {"sequence": "MRAPFISSLVKTLVHTDYDTSTGEVRSRRATGFVVGLTGEWGLGKSSVLNLLEHDLKQMEHVAVATLNPWLFKGRDEVVEAYFNALREALGFSSSEKARKLLVHLARYKASIEFVGATTAVVIDFVVGTGSATAIWKKWVLKVVRFLSKSRGLSANEERKNLEAKLAEAKIAIVMLIDELDRVEDEEVRVVAQLVKAVGDIKGISYLVAYDPSRVAQALGKGSTPEEKQKAGESYLEKIIQFPIPLRPLFMDEARDLLLQAMRNNDVTMPAESQSYQTEILNQLLRVIRTPREIKRLIGAFAVLEEIVRGLEHHHHHH", "soluble on expression in E. coli": "soluble"}, {"sequence": "MRAQMKQYNCHEGALPFTKSYLLRPLFNAFLMSPKPFHTTEACIGCKKCEKVCPVGNITVTDRPVWGGNCTQCLACYHVCPVHAVEYGKMTGLEHHHHHH", "soluble on expression in E. coli": "not soluble"}, {"sequence": "MRDFNNAQITRLKVRQNAVFEKLDLEFKDGLSAISGASGVGKSVLIASLLGAFGLKESNASNIEVELIAPFLDTEEYGIFREDEHEPLVISVIKKEKTRYFLNQTSLSKNTLKALLKGLIKRLSNDRFSQNELNDILMLSLLDGYIQNENKAFSPLLGALEEKFTRLEKLEKERRLLEDKKRFQKDLEERLNFEKMKLERLDLKEDEYERLLEQKKLLSSKEKLNDKIALAL", "soluble on expression in E. coli": "not soluble"}, {"sequence": "MREEKGMDQKVYDAYLSILKAELVPALGCTEPITIAYASAIARECLGAFPDVIQIKASGNIIKNVKSVVVPGTNGMKGIEAAVAAGLVGGKSEKKLEVISEVTEEEKEQIRDLVEKEIIEVGIAGSDLLLDVQVQLKKGDDSVFVRIANAHTNVVLVEKNGVRLFEKAMDCGGDDAGLSQEKKLLSVEGILEFADQVKLEDIEDVISRQIAYNTAIADEGLAHNYGANIGKVLLQAYGDQDVRVRAKARAAAGSDARMSGCELPVIINSGSGNQGITASVPVIEYAKELKCGEEKMYRALVLSNLIAIHQKTGIGPLSAYCGAVSAGCASGAAIAYLNGGDLRTISHTIVNCLAIASGIVCDGAKASCAAKIGMSVEAGLLGYLMIEQDQQFRAGDGIVKKGVEETIRSVGRLGKDGMRETDREILEIMIGK", "soluble on expression in E. coli": "not soluble"}, {"sequence": "MREKLFWILKKYGVSDHIAKAFLEIPREEFLTKSYPLSYVYEDIVLVSYDDGEEYSTSSQPSLMALFMEWVGLDKGMRVLEIGGGTGYNAAVMSRVVGEKGLVVSVEYSRKICEIAKRNVERLGIENVIFVCGDGYYGVPEFSPYDVIFVTVGVDEVPETWFTQLKEGGRVIVPINLKLSRRQPAFLFKKKDPYLVGNYKLETRFITAGGNLGNLLERNRKLLREFPFNREILLVRSHIFVELVDLLTRRLTEIDGTFYYAGPNGVVEFLDDRMRIYGDAPEIENLLTQWESCGYRSFEYLMLHVGYNAFSHISCSI", "soluble on expression in E. coli": "soluble"}, {"sequence": "MREMTADPYLGKYITCVSARSTDKEILKKAQDGGIATALMVYALEEGIIDGTIVAGEGDRPWEPRPIVAMSREDILKARGTKYSISPQIAWLKEATRSFGLDKVGVTGVCCQMQAVRKAQLYPINMRDVPGKVALTVGLFCMENFPYKSLQTIVEDHAAQSLGSVKKMEITKGKFWVHTERGNVSTVPLKATHKYEQPGCHVCLDYVSSLADISTGSVGSPDGWSTVFIRTKKGNEVWSKAVAAGMFETKPIEDVKPGLELLTKLAKEKIDKNRKTLEERRNFGVNKALRDPYAAAALEHHHHHH", "soluble on expression in E. coli": "not soluble"}, {"sequence": "MRETSSREDTNNIGKAPEMSGGTIMDTMTSLPHQNDQNVIRHLTNLVKSPASGDDDIKKKEDSIMELGNILAQNKQTEELRNMIEQTRPFLVSLGKAKAAKLVRDLVDLCLKIDDQDGDIKVGLVKECIQWATEQNRTFLRQTLTARLVRLYNDLQRYTQALPLAADLIRELKKVDDKDVLVEVELEESKAYYNLSNIGRARASLTGARTTANAIYVNPRMQAALDLQSGILHAADEKDFKTAFSYFYEAFEGYDSVDEKVSALTALKYMLLCKVMLDLPDEVNSLLSAKLALKYNGSDLDAMKAIAAAAQKRSLKDFQVAFGSFPQELQMDPVVRKHFHSLSERMLEKDLCRIIEPYSFVQIEHVAQQIGIDRSKVEKKLSQMILDQKLSGSLDQGEGMLIVFEIAVPDEAYQTALDTIHAMGEVVDALYSNASKIN", "soluble on expression in E. coli": "not soluble"}, {"sequence": "MREVKAFVTQDIPLYHNLVMKHIPGADPELVLLNHYYEELDRIPLFEMTRAEINKLLAELGFYKKDHPEDQVPEEFRFSPAKDSPFEGRQSSTAAPETTEPSDSQHTDL", "soluble on expression in E. coli": "soluble"}, {"sequence": "MRFFNKYKLFLDCAYKHLNIVLLDFKTNTVVDQLTIPVQQNLTELAVYHLEKLLKKNKVRNNTVRQFYVTTGPGSFTGQRVGAIIAKTWCTVNPNCQLFALNSLRLQIPYGCGISKISAGNEKNYCGLFTETTSEIALLAKPDFVKLCKANTELPVYENFENIDSIEELFLNNIERFELVENPQNLELLYLKDPVN", "soluble on expression in E. coli": "soluble"}, {"sequence": "MRFKAELMNAPEMRRALYRIAHEIVEANKGTEGLALVGIHTRGIPLAHRIARFIAEFEGKEVPVGVLDITLYRDDLTEIGYRPQVRETRIPFDLTGKAIVLVDDVLYTGRTARAALDALIDLGRPRRIYLAVLVDRGHRELPIRADFVGKNVPTSRSEVVKVKVEEVDGEDRVELWEREGA", "soluble on expression in E. coli": "soluble"}, {"sequence": "MRGPAPMPDTSLSTFLARPAPTILVEIEAVKGSSPREAGTFMLVSQEALWETIGGGQFEYMAIDHARAMLRTGAAEDRMDIPLGPEIGQCCGGRTLIRFRLITAEIAATLEARLKGEAEQQPAVFIFGAGHVGKALADALSLLPLTLKVVETRESELRDIPAGIASILTPMPEAFVQKIPANGAAIIVTHDHALDFLIAKEALARDDLAYVGMIGSKTKRATFAHWLEREGEPPSRLAKLTLPIGGTGVRDKRPAVIAALVAAELLQAFSVAETRRSENRHDHPQGQDRA", "soluble on expression in E. coli": "not soluble"}, {"sequence": "MRGRWPYEEKPLIVFWESTKACLLACKHCRAEALTEPQPGELSTREALALVDQVVEFGRPYPILVITGGDPLMRRDFWRILEYAVSQGLRVAVAPSVTPLLTREVVRRMARMGVARISISIDSGLPEVHDAIRGVPGTFKASVNIVREALAAGLPVQINTTVMKPTVDSLPETLKLLLDLGVDVWEVFYVVPTGRAARILDLTPSEWEDVSNYLYDASRYGVLVRTVEGPMFRRIALTRRLLENMGLDWRNR", "soluble on expression in E. coli": "not soluble"}, {"sequence": "MRGSHHHHHHGKQLTILGSTGSIGCSTLDVVRHNPEHFRVVALVAGKNVTRMVEQCLEFSPRYAVMDDEASAKLLKTMLQQQGSRTEVLSGQQAACDMAALEDVDQVMAAIVGAAGLLPTLAAIRAGKTILLANKESLVTCGRLFMDAVKQSKAQLLPVDSEHNAIFQSLPQPIQHNLGYADLEQNGVVSILLTGSGGPFRETPLRDLATMTPDQACRHPNWSMGRKISVDSATMMNKGLEYIEARWLFNASASQMEVLIHPQSVIHSMVRYQDGSVLAQLGEPDMRTPIAHTMAWPNRVNSGVKPLDFCKLSALTFAAPDYDRYPCLKLAMEAFEQGQAATTALNAANEITVAAFLAQQIRFTDIAALNLSVLEKMDMREPQCVDDVLSVDANAREVARKEVMRLASSACDLGTPGRPAAKLN", "soluble on expression in E. coli": "soluble"}, {"sequence": "MRGSHHHHHHGMASHITYDLPVAIEDILEAKKRLAGKIYKTGMPRSNYFSERCKGEIFLKFENMQRTGSFKIRGAFNKLSSLTEAEKRKGVVACSAGNHAQGVSLSCAMLGIDGKVVMPKGAPKSKVAATCDYSAEVVLHGDNFNDTIAKVSEIVETEGRIFIPPYDDPKVIAGQGTIGLEIMEDLYDVDNVIVPIGGGGLIAGIAIAIKSINPTIKVIGVQAENVHGMAASYYTGEITTHRTTGTLADGCDVSRPGNLTYEIVRELVDDIVLVSEDEIRNSMIALIQRNKVITEGAGALACAALLSGKLDSHIQNRKTVSIISGGNIDLSRVSQITGLVDA", "soluble on expression in E. coli": "soluble"}, {"sequence": "MRGSHHHHHHGSALSNKFIGDDMKMTYHMDGCVNGHYFTVKGEGNGKPYEGTQTSTFKVTMANGGPLAFSFDILSTVFKYGNRCFTAYPTSMPDYFKQAFPDGMSYERTFTYEDGGVATASWEISLKGNCFEHKSTFHGVNFPADGPVMAKKTTGWDPSFEKMTVCDGILKGDVTAFLMLQGGGNYRCQFHTSYKTKKPVTMPPNHVVEHRIARTDLDKGGNSVQLTEHAVAHITSVVPF", "soluble on expression in E. coli": "soluble"}, {"sequence": "MRGSHHHHHHGSPPAAPITLWTGPGPSINGFINDTPVIRCFICLTRDSNLVTVNASFVGEGGYRIVSPTQSQFSLIMEFDQFGQLMSTGNINSTTTWGEKPWGNNTVQPRPSHTWKLCMPNREVYSTPAATISRCGLDSIAVDGAPSRSIDCMLIINKPKGVATYTLTFRFLNFNRLSGGTLFKTDVLTFTYVGENQ", "soluble on expression in E. coli": "soluble"}]}]}
